Laboratory results as given in patent US9133440B2, “Generation of new pancreatic beta cells” (priority 2012, dated 2015).
Blank lines part the entries; values can stand above or below the molecule they belong to.

Tests used:
[1] = system: new small islets developing from non-endocrine tissue; settings: cited from earlier work; for levels of new islet markers NGN3, NKX6.1, SOX9, and INS: five days after treatment; for increase in the volume of new small islets developing from non-endocrine tissue: in vivo
[2] = molecular target: T1, Reg Receptor (Homo sapiens, UniProt O43909); assay: Direct binding of Perle peptides to purified Reg Receptor coated on 96 well plate (strep-HRP, absorbance at 405 nm); parameters: FLAG; made in house; host or cells: 293T cells (transient transfection, harvested after 72 hours); settings: FIG. 9; for strength of binding to the Reg Receptor relative to the other peptides tested: comparison among 7-, 8-, 9-amino acid Perle peptides, HIP and scrambled control; for direct binding to the Reg Receptor: purified Reg Receptor coated on plate, peptides bound 1 hour at room temperature, absorbance at 405 nm
T1 sequence (O43909 1-919): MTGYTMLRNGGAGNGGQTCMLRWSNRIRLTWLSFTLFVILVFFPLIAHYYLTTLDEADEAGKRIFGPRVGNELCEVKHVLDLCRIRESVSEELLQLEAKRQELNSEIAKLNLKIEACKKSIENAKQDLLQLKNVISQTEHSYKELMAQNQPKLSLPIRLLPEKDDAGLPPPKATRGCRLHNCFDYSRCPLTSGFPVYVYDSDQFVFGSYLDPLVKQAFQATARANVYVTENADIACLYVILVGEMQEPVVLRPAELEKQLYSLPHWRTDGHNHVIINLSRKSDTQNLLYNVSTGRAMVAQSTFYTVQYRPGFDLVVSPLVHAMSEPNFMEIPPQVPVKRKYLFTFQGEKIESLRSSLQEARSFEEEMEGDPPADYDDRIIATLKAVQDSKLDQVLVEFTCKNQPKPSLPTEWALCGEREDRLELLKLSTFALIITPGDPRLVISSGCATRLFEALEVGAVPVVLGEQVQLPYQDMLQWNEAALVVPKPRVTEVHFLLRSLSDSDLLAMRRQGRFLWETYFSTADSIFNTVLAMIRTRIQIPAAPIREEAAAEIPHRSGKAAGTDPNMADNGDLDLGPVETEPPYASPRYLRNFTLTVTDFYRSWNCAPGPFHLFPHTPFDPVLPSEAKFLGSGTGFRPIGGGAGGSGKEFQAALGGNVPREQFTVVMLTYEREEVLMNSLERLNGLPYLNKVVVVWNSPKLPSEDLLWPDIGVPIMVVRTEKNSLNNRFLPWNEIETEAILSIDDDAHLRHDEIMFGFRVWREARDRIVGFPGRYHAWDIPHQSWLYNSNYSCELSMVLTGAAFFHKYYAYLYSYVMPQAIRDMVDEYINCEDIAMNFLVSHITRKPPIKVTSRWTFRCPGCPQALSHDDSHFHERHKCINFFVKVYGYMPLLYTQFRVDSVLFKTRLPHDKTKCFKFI
Description: Cells were collected after 72 hours. The Reg Receptor was tagged with FLAG epitope and FLAG resin was utilized to purify out the Reg Receptor. […] The Reg Receptor was purified by Anti-Flag M2 affinity gel. Target protein was confirmed by 4-12% SDS-PAGE and Western-blot. […] FIGS. 7b and 7c are the Western blot results showing that the purified protein is the Reg Receptor using the antibody to the Reg Receptor (CD104). The Reg Receptor is shown In FIG. 7 to be highly purified.
Plates were coated overnight coated plate and washed three times with 0.5×TBST and blocked with 3% BSA and rotated at room temperature for 1 hour. After blocking, plates were washed three times with 0.5×TBST. Peptides were then diluted with TBST buffer and added into wells in duplicate then left to bind at room temperature for 1 hour. After washing three times, 100 ng/ml strep-HRP was added into plate at 100 ul/well, and rotated at room temperature for one hour. ABST reagents were warmed to room temperature, mixed immediately before using. Then 100 ul was added to each well and read after 25 minutes reaction and absorbance was evaluated at 405 nm by a Spectramax M5 plate reader. The purified Reg Receptor was coated on plates. Then plates were blocked with BSA solution. Subsequently, the Perle peptides were added into the wells, and HRP-straptavidin and its substrates were added into the wells to reveal the interaction between Receptor and the Perle peptide.

[3] = cited from earlier work
[4] = molecular target: 20 amino acid Reg Receptor sequence (SEQ ID NO:9) (amino acids 117-136) (Homo sapiens, UniProt O43909); assay: Enzyme ImmunoAssay titers of polyclonal antibodies raised to the 20-amino acid Reg Receptor sequence; assay type: binding; settings: reference range of FIG. 13; bleed after day 0 and day 21 boosts
Description: FIGS. 11-13 were from studies undertaken to develop stimulatory antibodies to the Reg Receptor to accelerate the progression of beta cell formation by stimulating potential binding sites on the Reg Receptor. For the production of […] antibodies, many sequences were evaluated within the N-terminal portion of Reg receptor (amino acids 1-332) (SEQ ID NO:13), which is the amino acid region believed to be the binding domain for the Reg peptides within the Reg receptor that is not contained in the other members of the of Exostoses family, and thus is hypothesized to be the Reg binding domain.
Data sets were taken from the bleed after the day 0 and day 21 boosts. The animals were injected with a peptide of SEQ ID NO: 9 and were conjugated to keyhole limpet hemocyanin (KLH). […] At a dilution of 1:750,000, the absorbance fell within a range of 0.45 to 0.9. […]
Previous studies have identified that Reg proteins and peptides act through a 919-amino acid cell-surface protein. […] For the production of stimulatory antibodies, sequences were evaluated within the N-terminal portion of the putative Reg Receptor (amino acids 1-332) (SEQ ID NO:13), which is the amino acid region of Reg Receptor that is not contained in the other members of the of Exostoses family, and thus is hypothesized to be the Reg binding domain.

[5] = molecular target: T1, Reg Receptor; assay: Western blot analysis of Reg Receptor translocation from cytoplasmic membrane to nucleus in human extra-islet ductal cells; assay type: cell-based; settings: Perle peptide 167 nM once a day for four days, cytosolic and nuclear fractions, shorter and longer exposure times
Description: Western blot analysis identified the presence of the Reg receptor on the cytoplasmic membrane and the movement of the Reg Receptor from the cytoplasmic membrane through the cytoplasm to the nucleus in the presence of the Perle peptides. Cytoplasmic extracts were obtained in 10 mM HEPES (pH 8.0), 1 mM EDTA, 1.5 mM MgCl2, 10 mM KCl, 0.5 mM DTT, 200 mM sucrose and 0.5% Nonidet P-40. Nuclear extracts were obtained in 20 mM HEPES (pH 7.9), 0.75 mM MgCl2, 210 mM NaCl, 50 mM KCl, 1 mM EDTA, 10% glycerol, and 0.5 mM DTT. Both extraction buffers contained 0.5 mM PMSF, 1 μg/ml leupeptin, 1 μg/ml aprotinin, 2.5 mM Na4P2O7, 1 mM β-glycerophosphate, and 1 mM Na3VO4. […] Secondary signals were developed with chemiluminescence substrate and analyzed by autoradiography. […]
Human extra-islet ductal cells were seeded in T75 flasks in Dulbecco's Modified Eagle media containing 10% fetal bovine serum. […] In these cell extracts the total protein levels were determined, and 50 micrograms of total protein were used to perform the western blot analysis. […]
Analyses were performed from cytoplasmic extracts were obtained in 10 mM HEPES (pH 8.0), 1 mM EDTA, 1.5 mM MgCl2, 10 mM KCl, 0.5 mM DTT, 200 mM sucrose and 0.5% Nonidet P-40. […] Secondary signals were developed with chemiluminescence substrate and analyzed by autoradiography. […]

[6] = system: STZ-rendered diabetic mice; settings: cited from earlier work
[7] = system: human pancreatic ductal tissue devoid of islets; settings: cited from earlier work

Molecule: INGAP: 15-amino acid peptide within the hamster Reg3gamma peptide sequence, prior art (IGLHDPSHGTLPNGS; listed as Mesocricetus auratus)
- levels of new islet markers NGN3, NKX6.1, SOX9, and INS [1]: increased levels
- increase in the volume of new small islets developing from non-endocrine tissue [1]: 2 fold
- rise in stimulated C-peptide ([3]; human type 1 patients, by day 56, p<0.001): 27%
- increase in stimulated C-peptide ([3]; type 1 patients, p=0.0057): 27%

Molecule: NVWIGLHDP (listed as Homo sapiens) [SEQ. ID NO. 1, 9-amino acid Perle peptide within human Reg1a and Reg1b]
- direct binding to the Reg Receptor [2]: demonstrated binding
- direct binding to the Reg Receptor ([2]; listed as 9-amino acid Perle peptide): bind directly

Molecule: SEQ ID NO: 9: 20-amino acid binding site within the human Reg receptor (amino acids 117-136), used as immunogen (CKKSIENAKQDLLQLKNVIS; listed as Homo sapiens)
- response to the antigen according to the polyclonal titer reference range [4]: high response

Molecule: VWIGLHDP (listed as Homo sapiens) [SEQ. ID NO. 4, 8-amino acid Perle peptide within human Reg1a, Reg1b and Reg3a]
- translocation of the Reg Receptor from the cytoplasm to the nucleus ([5]; listed as 8-amino acid Perle peptide): greatest ability
- translocation of the Reg Receptor from the cytoplasm to the nucleus ([5]; listed as 8-amino-acid Perle Peptide): greatest impact
- strength of binding to the Reg Receptor relative to the other peptides tested [2]: greatest binding
- strength of binding to the Reg Receptor relative to the other peptides tested ([2]; listed as 8-amino acid peptide): strongest in binding
- direct binding to the Reg Receptor [2]: bind directly

B1: Reg3a protein: human Reg3a gene protein given to ductal tissue and STZ diabetic mice in the inventor's earlier study (protein, listed as Homo sapiens)
chain: MLPPMALPSVSWMLLSCLMLLSQVQGEEPQRELPSARIRCPKGSKAYGSHCYALFLSPKSWTDADLACQKRPSGNLVSVLSGAEGSFVSSLVKSIGNSYSYVWIGLHDPTQGTEPNGEGWEWSSSDVMNYFAWERNPSTISSPGHCASLSRSTAFLRWKDYNCNVRLPYVCKFTD
- rise in total beta cells staining insulin ([6]; STZ-rendered diabetic mice): 3 fold
- fasting glucose ([6]; overnight fast, morning of day 39 of treatment, P=0.020 vs placebo): 111.00 ± 11.4 mg/dL
- insulin concentrations [7]: significant increase

The next lines start with results.

- direct binding to the Reg Receptor [2]: no direct binding
Molecule: HIP: 14-amino Reg 3a peptide sequence (Human Proislet Peptide), prior art (IGLHDPTQGTEPNG; listed as Homo sapiens) [reference compound]
- levels of new islet markers NGN3, NKX6.1, SOX9, and INS [1]: increased levels
- increase in the volume of new small islets developing from non-endocrine tissue [1]: 2 fold
- strength of binding to the Reg Receptor relative to the other peptides tested [2]: same level of binding as the scrambled peptide

- direct binding to the Reg Receptor [2]: demonstrated binding
- direct binding to the Reg Receptor ([2]; listed as 7-amino acid Perle peptide): bind directly
Molecule: WIGLHDP (listed as Homo sapiens) [SEQ. ID NO. 7, 7-amino acid Perle peptide within human Reg1a, Reg1b, Reg3a and Reg4]
